The text below walks through data of article PMC10167121, “Completing the TRB family: newly characterized members show ancient evolutionary origins and distinct localization, yet similar interactions”.

Data set [1] concerns the target T1, TRB5 (Arabidopsis thaliana (Col-0), UniProt F4IEY4 1-287).
T1 sequence: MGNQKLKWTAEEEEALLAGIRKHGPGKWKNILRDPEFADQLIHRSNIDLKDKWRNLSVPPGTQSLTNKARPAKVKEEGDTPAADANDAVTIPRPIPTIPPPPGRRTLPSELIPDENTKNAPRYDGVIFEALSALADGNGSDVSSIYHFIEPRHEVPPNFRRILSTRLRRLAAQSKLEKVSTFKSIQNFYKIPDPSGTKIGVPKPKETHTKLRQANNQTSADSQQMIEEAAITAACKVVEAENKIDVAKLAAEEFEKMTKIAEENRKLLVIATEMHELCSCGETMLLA
Description: EMSA; non-telomeric competitor 1-100x; 10 mM Tris-HCl pH 8.0, 1 mM EDTA, 1 mM DTT, 50 mM NaCl, 5% glycerol; 10 pmol protein, 1 pmol probe, on ice 20 min; 7.5% PAGE, 0.5x TBE, 15 C. The conditions noted are these: protein: recombinant; tags: His-tag (pHGWA); chain copies: 2; label: 32P 5'-end; blunt. For orientation: A gel shift assay detects complexes by their altered migration in electrophoresis.

Data set [2] deals with T2, TRB4 (Arabidopsis thaliana, UniProt F4I7L1 1-296).
T2 sequence: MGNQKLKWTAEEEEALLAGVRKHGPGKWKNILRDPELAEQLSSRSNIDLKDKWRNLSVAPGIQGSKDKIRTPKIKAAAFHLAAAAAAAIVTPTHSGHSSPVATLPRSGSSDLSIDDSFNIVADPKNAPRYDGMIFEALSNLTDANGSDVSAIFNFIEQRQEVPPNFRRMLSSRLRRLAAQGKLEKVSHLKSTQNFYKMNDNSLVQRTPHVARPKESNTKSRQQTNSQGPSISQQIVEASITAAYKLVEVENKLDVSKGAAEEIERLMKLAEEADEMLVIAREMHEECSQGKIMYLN
Described as above. Particulars: protein: recombinant; tags: His-tag (pHGWA); chain copies: 2; label: 32P 5'-end; blunt.

Data set [3] has as its target T1, TRB5. Nature of the data set: EMSA; high-molecular-weight complex not entering the gel; resists 100x non-telomeric competitor; 10 mM Tris-HCl pH 8.0, 1 mM EDTA, 1 mM DTT, 50 mM NaCl, 5% glycerol; 10 pmol protein, 1 pmol probe, on ice 20 min; 7.5% PAGE, 0.5x TBE, 15 C. The conditions noted are these: protein: recombinant; tags: His-tag (pHGWA); chain copies: 2; label: 32P 5'-end; blunt.

The target of another data set is T3, TRB1 (Arabidopsis thaliana, UniProt Q8VWK4 1-300).
T3 sequence: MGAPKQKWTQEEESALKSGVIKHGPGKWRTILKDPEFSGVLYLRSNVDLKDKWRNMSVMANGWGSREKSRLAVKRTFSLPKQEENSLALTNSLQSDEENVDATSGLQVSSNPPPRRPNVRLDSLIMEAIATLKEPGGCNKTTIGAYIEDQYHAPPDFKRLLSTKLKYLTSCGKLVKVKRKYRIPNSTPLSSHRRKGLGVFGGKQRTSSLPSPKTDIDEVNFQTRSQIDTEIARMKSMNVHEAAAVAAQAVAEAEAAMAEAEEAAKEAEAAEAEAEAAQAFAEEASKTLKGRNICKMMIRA
The description is as above. The conditions noted are these: protein: recombinant; tags: His-tag (pHGWA); label: 32P 5'-end; blunt.

Data set [4] deals with T2, TRB4. Described as above. Particulars: protein: recombinant; tags: His-tag (pHGWA); chain copies: 2; label: 32P 5'-end; blunt.

B1: telo-box (dsDNA)
DNA 1: TTTTTCACGAAAACCCTAATCGCAGTCG
DNA 2: CGACTGCGATTAGGGTTTTCGTGAAAAA
In the case of B1, the binding result in the data set with TRB5 [1] and with TRB4 [2] was “binds” throughout.

B2: telomeric (four plant telomeric repeats) (dsDNA)
DNA 1: AAACCCTAAACCCTAAACCCTAAACCCT
DNA 2: AGGGTTTAGGGTTTAGGGTTTAGGGTTT
Regarding B2, the binding result with TRB5 [3], in the data set with TRB1 and with TRB4 [4] was “binds” throughout.
